Results as given in patent US20260347474 (published 2026).

target: human PD1-6His (human); test: ELISA
Sequence (chain, as listed by the source): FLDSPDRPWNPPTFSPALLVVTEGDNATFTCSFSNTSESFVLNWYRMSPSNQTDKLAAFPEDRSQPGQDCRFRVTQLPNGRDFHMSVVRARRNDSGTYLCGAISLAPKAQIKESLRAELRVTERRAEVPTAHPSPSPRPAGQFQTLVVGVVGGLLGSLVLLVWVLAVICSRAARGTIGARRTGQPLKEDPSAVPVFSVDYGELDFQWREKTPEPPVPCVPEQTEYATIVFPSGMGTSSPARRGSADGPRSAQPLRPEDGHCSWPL

EC50 [nM] | Binder
0.11 | P-1153 (antibody, V domains shown) VH: QVQLVQSGVEVKKPGASVKVSCKASGYTFTNYYMYWVRQAPGQGLEWMGGINPSNGGTNYAQKFQGRVTLTTDSSTTTAYMELKSLQFDDTAVYYCARRDYRFDMGFDYWGQGTTVTVSS VL: EIVLTQSPATLSLSPGERATLSCRASQGVSTSGYSYLAWYQQKPGQAPRLLIYLASYRASGVPARFSGSGSGTDFTLTISSLEPEDFAVYYCQHSRDLPLTFGGGTKVEIKR
0.065 | P-1151 (antibody, V domains shown) VH: QVQLVQSGVEVKKPGASVKVSCKASGYTFTNYYMYWVRQAPGQGLEWMGGINPSNGGTNYAQKFQGRVTLTTDSSTTTAYMELKSLQFDDTAVYYCARRDYRFDMGFDYWGQGTTVTVSS VL: EIVLTQSPATLSLSPGERATLSCRASQGVSTSGYSYLHWYQQKPGQAPRLLIYLASYRASGVPARFSGSGSGTDFTLTISSLEPEDFAVYYCQHSRDLPLTFGGGTKVEIKR
0.088 | P-1150 (antibody, V domains shown) VH: QVQLVQSGVEVKKPGASVKVSCKASGYTFTNYYMYWVRQAPGQGLEWMGGINPSNGGTNFAQKFQGRVTLTTDSSTTTAYMELKSLQFDDTAVYYCARRDYRFDMGFDYWGQGTTVTVSS VL: EIVLTQSPATLSLSPGERATLSCRASQGVSTSGYSYLAWYQQKPGQAPRLLIYLASYRASGVPARFSGSGSGTDFTLTISSLEPEDFAVYYCQHSRDLPLTFGGGTKVEIKR
0.093 | P-1148 (antibody, V domains shown) VH: QVQLVQSGVEVKKPGASVKVSCKASGYTFTNYYMYWVRQAPGQGLEWMGGINPSNGGTNFAQKFQGRVTLTTDSSTTTAYMELKSLQFDDTAVYYCARRDYRFDMGFDYWGQGTTVTVSS VL: EIVLTQSPATLSLSPGERATLSCRASQGVSTSGYSYLHWYQQKPGQAPRLLIYLASYRASGVPARFSGSGSGTDFTLTISSLEPEDFAVYYCQHSRDLPLTFGGGTKVEIKR
